B1: FI28 variant 1 (antibody, V domains shown)
VH: EVQLVESGGGAVQPGESLKLSCAASGFTFSNYGMHWVRQAPGKGLEWVAVISYDGSNKYYADSVKGRFTISRDNSKDTLYLQMNSLRAEDTALFYCAKERPLRLLRYFDWLSGGANDYWGQGTLVTVSS
VL: DIVMTQSPDSLAVSLGERATINCKSSQSVLYSSNNKNYLAWYQQKPGQPPKLLIDWASTRESGVPDRFSGSGSGTDFTLTISNLQVEDVAVYYCQQYYRSPSFGQGTKLEIK
B2: FI6 variant 2 (antibody, V domains shown)
VH: QVQLVQSGGGVVQPGRSLRLSCVASGFTFSTYAMHWVRQAPGRGLEWVAVISYDGNYKYYADSVKGRFSISRDNSNNTLHLEMNTLRTEDTALYYCAKDSQLRSLLYFEWLSQGYFDPWGQGTLVTVTS
VL: DIQMTQSPDSLAVSLGARATINCKSSQSVTFNYKNYLAWYQQKPGQPPKVLIYWASARESGVPDRFSGSGSGTDFTLTISSLQAEDVAVYYCQQHYRTPPTFGQGTKVEIK
B3: FI6 variant 3 (antibody, V domains shown)
VH: QVQLVESGGGVVQPGRSLRLSCAASGFTFSTYAMHWVRQAPGKGLEWVAVISYDANYKYYADSVKGRFTISRDNSKNTLYLQMNSLRAEDTAVYYCAKDSQLRSLLYFEWLSQGYFDYWGQGTLVTVSS
VL: not shown

Legend:
[1] = biological target: T1, HA of H1N1 A/New Caledonia/20/99 (influenza A virus H1N1 A/New …); assay: cell-based or functional assay
[2] = biological target: T2, HA of H1N1 A/Solomon Islands/3/06 (influenza A virus H1N1 A/Solomon …); assay: cell-based or functional assay
HA of H3N2 A/CA/7/04 = HA of H3N2 A/CA/7/04 (influenza A virus H3N2 A/CA/7/04); assay: cell-based or functional assay
HA of H3N2 A/WI/67/05 = HA of H3N2 A/WI/67/05 (influenza A virus H3N2 A/WI/67/05); assay: cell-based or functional assay
[3] = biological target: T1, HA of H1N1 A/New Caledonia/20/99; assay: ELISA on recombinant or purified HA
[4] = biological target: T2, HA of H1N1 A/Solomon Islands/3/06; assay: ELISA on recombinant or purified HA

Row | Binder | Neutralization of infectious viruses (IC50, µg/ml) [1] [µg/mL] | Neutralization of infectious viruses (IC50, µg/ml) [2] [µg/mL] | Neutralization of infectious viruses (IC50, µg/ml) (HA of H3N2 A/CA/7/04) [µg/mL] | Neutralization of infectious viruses (IC50, µg/ml) (HA of H3N2 A/WI/67/05) [µg/mL] | EC50 [3] [µg/mL] | EC50 [4] [µg/mL]
1 | B1 | > 100 | > 100 | > 100 | > 100 | – | –
2 | B2 | 6.3 | 8.8 | 7.9 | 12.5 | 0.015 | 0.018
3 | B3 | – | – | – | – | 0.017 | 0.019

— patent US20170204167A1 (INSTITUTE FOR RESEARCH IN BIOMEDICINE, published 2017)
